Laboratory results reported in patent publication US20040171585.

Biological target: T1, HNF-4α (UniProt P41235)
T1 sequence: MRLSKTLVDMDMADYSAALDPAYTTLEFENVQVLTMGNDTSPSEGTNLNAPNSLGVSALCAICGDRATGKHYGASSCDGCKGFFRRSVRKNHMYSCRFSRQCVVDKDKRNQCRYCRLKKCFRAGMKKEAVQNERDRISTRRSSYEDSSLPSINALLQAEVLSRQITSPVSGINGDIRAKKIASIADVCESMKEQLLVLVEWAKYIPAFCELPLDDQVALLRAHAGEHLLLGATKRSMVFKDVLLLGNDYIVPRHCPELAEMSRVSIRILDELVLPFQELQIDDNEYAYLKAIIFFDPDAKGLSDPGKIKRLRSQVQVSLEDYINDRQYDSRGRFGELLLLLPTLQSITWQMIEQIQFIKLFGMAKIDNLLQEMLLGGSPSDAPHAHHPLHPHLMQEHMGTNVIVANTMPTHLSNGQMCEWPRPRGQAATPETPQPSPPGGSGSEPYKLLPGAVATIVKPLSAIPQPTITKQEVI
Assay: cell_activity
Details: CAT reporter with TK promoter and one to three C3P copies, COS-7, no added fatty acids

GCAGGTGACCTTTGCCCAGCGCC (double strand) [C3P element of apo CIII promoter (-87/-66)]
activity (fold activation): 7
